Measurements: US20090226415A1, “MODIFIED TRIDEGINS, PRODUCTION AND USE THEREOF AS TRANSGLUTAMINASE INHIBITORS” (priority 2001, published 2009)
Where two headings read alike, the source gives them in different places.

T1: factor XIIIa (Homo sapiens, UniProt P00488)
T1 sequence (P00488 39-732 limits assumed): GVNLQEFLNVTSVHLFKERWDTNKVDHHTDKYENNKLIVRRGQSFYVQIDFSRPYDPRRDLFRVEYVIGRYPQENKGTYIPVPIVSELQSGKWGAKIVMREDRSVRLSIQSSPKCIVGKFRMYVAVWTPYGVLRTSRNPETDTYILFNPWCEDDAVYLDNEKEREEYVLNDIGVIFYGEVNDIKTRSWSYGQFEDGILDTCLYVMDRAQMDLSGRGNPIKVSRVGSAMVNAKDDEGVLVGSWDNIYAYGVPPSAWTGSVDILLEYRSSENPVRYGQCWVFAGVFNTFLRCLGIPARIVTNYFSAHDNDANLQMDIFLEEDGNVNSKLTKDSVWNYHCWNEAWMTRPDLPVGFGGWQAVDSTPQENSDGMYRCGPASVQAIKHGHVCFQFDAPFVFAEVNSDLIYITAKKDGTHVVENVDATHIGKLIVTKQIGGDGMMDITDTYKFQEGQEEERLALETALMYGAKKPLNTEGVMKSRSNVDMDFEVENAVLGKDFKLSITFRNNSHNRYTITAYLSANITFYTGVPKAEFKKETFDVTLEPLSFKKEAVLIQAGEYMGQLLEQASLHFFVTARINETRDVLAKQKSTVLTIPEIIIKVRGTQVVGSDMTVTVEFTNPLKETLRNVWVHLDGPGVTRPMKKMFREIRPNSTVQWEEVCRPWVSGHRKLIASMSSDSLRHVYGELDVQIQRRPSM

B1: SEQ ID No. 1: recombinant wild-type tridegin polypeptide expressed in and purified from Escherichia coli (protein)
chain: MKLLPCKEWHQGIPNPRCWCGADLECAQDQYCAFIPQCRPRSELIKPMDDIYQRPVEFPNLPLKPREE

Columns and labels:
factor XIIIa [1] = biological target: T1, factor XIIIa; settings: Table 1, published inhibitors of factor XIIIa; read-out: Affinity (IC50); cited from earlier work
factor XIIIa [2] = biological target: T1, factor XIIIa; assay: biochemical; assay type: biochemical; settings: for Relative inhibitory effect (%): final variant concentration 5.45 μM
Experimental: The assay is based on factor XIII being activated to form factor XIIIa by thrombin which is present in the reagents. Factor XIIIa links a specific peptide substrate to glycine ethyl ester with ammonium ions being released. The latter are determined in an enzyme reaction which proceeds in parallel. The extinction at 340 nm was used to measure the decrease in NADH. For the measurement, peptides were present in 50% acetonitrile in a stock concentration of 5 mM. The NADH and detection reagents which were supplied by the manufacturer were dissolved in 3 ml of water, with the activator reagent subsequently being dissolved in 3 ml of NADH reagent. For use, the activator and detection reagents were mixed in a ratio of 1:1. In order to carry out the measurement in microtiter plate format, 100 μl of sample (inhibitor or control buffer), 25 μl of factor XIII (10 U/ml) and 150 μl of working reagent were mixed. The measurement was carried out continuously for 20 min at 340 nm, and at 37° C., in a microtiter plate photometer. For the evaluation, the differences in the values measured after 16 and 20 min were compared.
The relative inhibitory effect (%) was determined at a final variant concentration of 5.45 μM. The inhibitory effect of the recombinant tridegin polypeptide was normalized to 100% (at 5.45 μM).
The above-described Berichrom® assay was used to determine the relative inhibitory effect (%) at a final concentration of the peptides of 7.27 μM. The inhibitory effect of the recombinant tridegin polypeptide, at a final concentration of 7.27 μM, was normalized to 100%.
The relative inhibitory effect (%) was determined at a final variant concentration of 5.45 μM. The inhibitory effect of the recombinant wild-type tridegin poly-peptide (at 5.45 μM) was normalized to 100%. The oligonucleotides which were used to produce the abovementioned variants are also specified in the table.

[3] = Analytical gel filtration run for multimeric, high molecular weight aggregates; assay type: physicochemical; settings: 20 mM sodium phosphate, pH 8.0, 300 mM NaCl
From the text: These modified tridegins were produced by site-directed mutagenesis of the cysteines present in the wild-type tridegin. The aim of this mutagenesis was to replace, in a step-wise manner, the cysteine residues which are suitable for forming intermolecular disulfide bridges. The tendency to form disulfide bridges, and the aggregation of the end product which accompanies it, were detected by carrying out appropriate chromatographic analyses of the original transglutaminase inhibitor (SEQ ID No. 1) in the presence or absence of reducing agents (e.g. mercaptoethanol and DTT). Thus, in one gel filtration run (on an Amersham-Pharmacia HiPrep 26/60 Sephacryl S200 HR column; 20 mM sodium phosphate, pH 8.0, 300 mM NaCl; 1 ml/min) the purified, recombinant tridegin polypeptide had approximately an 80% content of multimeric, high molecular weight aggregates.

whole citrate blood = assay: Thrombelastography (ROTEG) of coagulation and fibrinolysis in whole citrate blood; parameters: species or system human
From the text: To do this, what are termed thrombelasto-grams were plotted. Thrombelastography is a current method for measuring coagulation and fibrinolysis. The method measures the change in the viscosity of the blood by the change in the resistance to rotation of a plunger which is present in the blood (Calatzis et al., 2000). […] Thrombelastograms quantify important parameters of haemostasis: • clotting time (time between the initiation of coagulation and the beginning of a measurable change in the viscosity of the blood, CT) • stability of the thrombus (maximum amplitude, maximum clot firmness, MCF) • fibrinolysis time (time between the beginning of a measurable change in blood viscosity and achievement of the starting value prior to the clotting, lysis time, LT).
The ROTEG® instrument supplied by Pentapharm GmbH, Munich, was used for the measurements which are shown. FIGS. 5 and 6 show the thrombelastograms of whole citrate blood after the addition of Ca^2+ (Starteg reagent, from Pentapharm GmbH) and thromboplastin phospholipid (Integ reagent, from Pentapharm GmbH). These reagents are used to induce coagulation. […] This is made clear by […]

Row | Molecule | IC50 (factor XIIIa [1]) [µM] | Relative inhibitory effect (%) (factor XIIIa [2]; Table 2, recombinant tridegin polypeptide normalized to 100%) | Relative inhibitory effect (%) (factor XIIIa [2]; Table 4, Cys variants, wild-type tridegin polypeptide normalized to 100%) | IC50 (factor XIIIa [2]; purified recombinant tridegin polypeptide from Escherichia coli, FIG. 3) [µM] | content of multimeric, high molecular weight aggregates ([3]; Sephacryl S200 HR, no reducing agent) [%] | content of the aggregates ([3]; reducing conditions: 1.5 mM DTT) [%] | clotting time (CT) (whole citrate blood; FIG. 5 A and B, 190 seconds in the absence of inhibitor) [s] | effect on fibrinolysis brought about by tPA and urokinase (whole citrate blood; lower amplitude and increased rate of fibrinolysis)
1 | C/C=C/C/C=C/CCC(=O)[C@H]1O[C@H]1C(N)=O [Cerulenin] | 29 |  |  |  |  |  |  | 
2 | C[C@@H]1CCC/C=C\C(=O)Cc2cc(O)cc(O)c2C(=O)O1 [ZG-1400] | 5.7 |  |  |  |  |  |  | 
3 | B1 |  | 100 | 100 | 2 to 4 | ~80 | < 20 | 380 | accelerate and improve the fibrinolysis
